Data on three molecules can be found in US20200087400A1 (EUREKA THERAPEUTICS, published 2020).

One experiment addresses T1, Bio-P19 member A2E-16 (chain 2: C-terminal BirA substrate peptide (BSP), enzymatically biotinylated; its letters are not printed in the patent and it is left out).
T1 construct: also called biotinylated control peptide A2E-16/HLA-A*02:01 monomer
As to the kind of experiment: phage ELISA, streptavidin plate, anti-M13-HRP. The method, then:
(§1) Individual phage clones from enriched phage display panning pools against PSA146/HLA-A*02:01 complex were incubated in the coated plates. Binding of the phage clones was detected by HRP-conjugated anti-M13 antibodies and developed using HRP substrate. The absorbance was read at 450 nm. […] Then, unique antibody clones were identified through DNA sequencing of ELISA-positive clones. […] T2 cells loaded with different peptides and β2M were first stained with purified scFv phage clones, followed by staining with a mouse anti-M13 mAb, and finally R-PE conjugated horse anti-mouse IgG from Vector Labs. Each step of the staining was performed for between 30-60 minutes on ice and the cells were washed twice between stainings. All 16 clones recognized PSA146-loaded T2 cells specifically. FIG. 3 provides examples of PSA146/HLA-A*02:01 specific phage clone binding to peptide-loaded T2 cells through FACS.
(An ELISA detects its analyte on a solid surface through an enzyme-linked reagent.)

The next experiment addresses T2, Bio-P19 member A2E-5 (chain 2 carries a C-terminal BirA substrate peptide (BSP), enzymatically biotinylated; the BSP letters are not given in the patent and are left out).
T2 construct: also called biotinylated control peptide A2E-5/HLA-A*02:01 monomer
As to the kind of experiment: phage ELISA, streptavidin plate, anti-M13-HRP. The method, then: as §1

For another experiment, the target named is T3, Bio-P19 member A2E-14 (chain 2: C-terminal BirA substrate peptide (BSP), enzymatically biotinylated; its letters are not printed in the patent and it is left out).
T3 construct: also called biotinylated control peptide A2E-14/HLA-A*02:01 monomer
As to the kind of experiment: phage ELISA, streptavidin plate, anti-M13-HRP. As for the experimental part:
as §1

The target in experiment [1] is T4, control peptide A2E-4/HLA-A*02:01 complex on T2 cells (member of the P19 mixture) (human).
T4 construct: Loaded on T2 cells as part of the mixture of 19 control peptides
Put plainly: flow cytometry, phage on T2 cells. The method, then:
as §1
For orientation: In flow cytometry, cells or beads pass a laser one at a time.

Experiment [2] deals with T5, control peptide A2E-9/HLA-A*02:01 complex on T2 cells (member of the P19 mixture) (human).
T5 construct: Loaded on T2 cells as part of the mixture of 19 control peptides
Put plainly: flow cytometry, phage on T2 cells. As for the experimental part: as §1

In experiment [3] the target is T6, control peptide A2E-17/HLA-A*02:01 complex on T2 cells (member of the P19 mixture) (human).
T6 construct: Loaded on T2 cells as part of the mixture of 19 control peptides
Put plainly: flow cytometry, phage on T2 cells. The method, then:
as §1

Experiment [4] deals with T7, control peptide A2E-23/HLA-A*02:01 complex on T2 cells (member of the P19 mixture) (human).
T7 construct: Loaded on T2 cells as part of the mixture of 19 control peptides
Put plainly: flow cytometry, phage on T2 cells. The method, then: as §1

Experiment [5] has as its target T8, control peptide A2E-10/HLA-A*02:01 complex on T2 cells (member of the P19 mixture) (human).
T8 construct: Loaded on T2 cells as part of the mixture of 19 control peptides
As to the kind of experiment: flow cytometry, phage on T2 cells. The method, then:
as §1

Experiment [6] addresses T9, control peptide A2E-8/HLA-A*02:01 complex on T2 cells (member of the P19 mixture) (human).
T9 construct: Loaded on T2 cells as part of the mixture of 19 control peptides
Put plainly: flow cytometry, phage on T2 cells. The method, then:
as §1

For experiment [7], the target named is T10, control peptide A2E-3/HLA-A*02:01 complex on T2 cells (member of the P19 mixture) (human).
T10 construct: Loaded on T2 cells as part of the mixture of 19 control peptides
Put plainly: flow cytometry, phage on T2 cells. The method, then: as §1

The target in experiment [8] is T11, control peptide A2E-19/HLA-A*02:01 complex on T2 cells (member of the P19 mixture) (human).
T11 construct: Loaded on T2 cells as part of the mixture of 19 control peptides
Put plainly: flow cytometry, phage on T2 cells. As for the experimental part:
as §1

Experiment [9] concerns the target T12, control peptide A2E-13/HLA-A*02:01 complex on T2 cells (member of the P19 mixture) (human).
T12 construct: Loaded on T2 cells as part of the mixture of 19 control peptides
Put plainly: flow cytometry, phage on T2 cells. As for the experimental part: as §1

Experiment [10] deals with T13, control peptide A2E-14/HLA-A*02:01 complex on T2 cells (member of the P19 mixture) (human).
T13 construct: Loaded on T2 cells as part of the mixture of 19 control peptides
Put plainly: flow cytometry, phage on T2 cells. As for the experimental part:
as §1

Experiment [11] has as its target T14, control peptide A2E-11/HLA-A*02:01 complex on T2 cells (member of the P19 mixture) (human).
T14 construct: Loaded on T2 cells as part of the mixture of 19 control peptides
Put plainly: flow cytometry, phage on T2 cells. The method, then: as §1

Experiment [12] deals with T15, control peptide A2E-15/HLA-A*02:01 complex on T2 cells (member of the P19 mixture) (human).
T15 construct: Loaded on T2 cells as part of the mixture of 19 control peptides
Put plainly: flow cytometry, phage on T2 cells. As for the experimental part: as §1

In experiment [13] the target is T16, control peptide A2E-16/HLA-A*02:01 complex on T2 cells (member of the P19 mixture) (human).
T16 construct: Loaded on T2 cells as part of the mixture of 19 control peptides
As to the kind of experiment: flow cytometry, phage on T2 cells. As for the experimental part: as §1

The target in experiment [14] is T17, control peptide A2E-1/HLA-A*02:01 complex on T2 cells (member of the P19 mixture) (human).
T17 construct: Loaded on T2 cells as part of the mixture of 19 control peptides
As to the kind of experiment: flow cytometry, phage on T2 cells. The method, then: as §1

In experiment [15] the target is T18, control peptide A2E-2/HLA-A*02:01 complex on T2 cells (member of the P19 mixture) (human).
T18 construct: Loaded on T2 cells as part of the mixture of 19 control peptides
Put plainly: flow cytometry, phage on T2 cells. The method, then: as §1

Experiment [16] concerns the target T19, control peptide A2E-5/HLA-A*02:01 complex on T2 cells (member of the P19 mixture) (human).
T19 construct: Loaded on T2 cells as part of the mixture of 19 control peptides
Put plainly: flow cytometry, phage on T2 cells. As for the experimental part:
as §1

Experiment [17] addresses T20, control peptide A2E-6/HLA-A*02:01 complex on T2 cells (member of the P19 mixture) (human).
T20 construct: Loaded on T2 cells as part of the mixture of 19 control peptides
Put plainly: flow cytometry, phage on T2 cells. The method, then: as §1

Experiment [18] addresses T21, control peptide A2E-21/HLA-A*02:01 complex on T2 cells (member of the P19 mixture) (human).
T21 construct: Loaded on T2 cells as part of the mixture of 19 control peptides
As to the kind of experiment: flow cytometry, phage on T2 cells. The method, then:
as §1

Experiment [19] has as its target T22, control peptide A2E-7/HLA-A*02:01 complex on T2 cells (member of the P19 mixture) (human).
T22 construct: Loaded on T2 cells as part of the mixture of 19 control peptides
As to the kind of experiment: flow cytometry, phage on T2 cells. As for the experimental part:
as §1

Experiment [20] addresses T23, HLA-A*02:01 on T2 cells with no peptide loaded (human).
T23 construct: TAP-deficient T2 cells, no peptide loaded from outside; also called T2 cells without peptide loading
Put plainly: flow cytometry, phage on T2 cells, anti-M13 + R-PE anti-mouse IgG. The method, then: as §1

Experiment [21] concerns the target T24, PSA 146-154 peptide/HLA-A*02:01 complex on the cell surface (human).
T24 construct: also called PSA146/HLA-A*02:01; PSA146-loaded T2 cells
The experiment is described as above. The method, then: as §1

B1: PSA146/HLA-A*02:01-specific scFv phage clone #10 (scFv, V domains shown)
VH: QVQLVQSGAEVKKPGSSVKVSCKASGGTFSSYAISWVRQAPGQGLEWMGWINPNSGGTNYAQKFQGRVTMTRDTSISTAYMELSRLRSDDTAVYYCARWSYYYFQQFWSLDGWGQGTLVTVSS
VL: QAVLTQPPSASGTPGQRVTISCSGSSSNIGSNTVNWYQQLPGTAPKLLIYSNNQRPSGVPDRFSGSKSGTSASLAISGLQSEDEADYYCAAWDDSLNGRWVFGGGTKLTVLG
On to B1, for which the binding result (in the experiment with Bio-P19 member A2E-16; with Bio-P19 member A2E-5; in the experiment with Bio-P19 member A2E-14; in experiment [1]; in [2]; in experiment [3]) was “no binding” each time. Moreover, the binding result in experiment [4], in [5], in experiment [6], in experiment [7], in experiment [8] and in [9] was “no binding” in each case. In addition, the binding result in experiment [10], in experiment [11], in experiment [12], in [13], in [14] and in experiment [15] was “no binding” in each case. Further, the binding result in [16] is recorded as “no binding”; in [17], “no binding”; in experiment [18], “no binding”; in experiment [19] it was “no binding”; in [20] it was “no binding”; in [21], “binds”.

B2: PSA146/HLA-A*02:01-specific scFv phage clone #12 (scFv, V domains shown)
VH: QMQLVQSGSEVKKPGASVKVSCKASGYTFTSYGISWVRQAPGQGLEWMGWISAYNGNTDYVQKLQGRVTMTTDTSTNTAYMELGSLGSDDTAVYYCARTNYNKYDIWGQGTLVTVSS
VL: QSVLTQPPSVSGAPGQRVTISCTGSSSNIGAGYDVHWYQQLPGTAPKLLIYGNSNRPSGVPDRFSGSKSGTSASLAITGLQAEDEADYYCQSYDSSLSEVFGTGTKVTVLG
Consider B2, for which the binding result (with Bio-P19 member A2E-16; with Bio-P19 member A2E-5; with Bio-P19 member A2E-14; in [1]; in [2]; in experiment [3]) was “no binding” throughout. Also, the binding result in experiment [4], in [5], in experiment [6], in experiment [7], in experiment [8] and in experiment [9] was “no binding” in each case. For the same molecule, the binding result in experiment [10], in experiment [11], in [12], in experiment [13], in experiment [14] and in experiment [15] was “no binding” each time. Moreover, the binding result in experiment [16] is “no binding”; in [17] it was “no binding”; in [18], “no binding”; in experiment [19], “no binding”; in experiment [20], “no binding”; in experiment [21] it was “binds”.

B3: PSA146/HLA-A*02:01-specific scFv phage clone #9 (scFv, V domains shown)
VH: QVQLVQSGAEVKKPGASVKVSCKASGYTFTSYGISWVRQAPGQGLEWMGWISAYNGNTNYAQKLQGRVTMTTDTSTSTAYMELRSLRSDDTAVYYCARSSQYYVWDSWGQGTLVTVSS
VL: QSVVTQPPSVSGAPGQRVTISCTGSSSNFGAGYDVHWYQQLPGTAPKLLIYGNSNRPSGVPDRFSGSKSGTSASLAITGLQAEDEADYYCQSYDSSLSGWVFGGGTKLTVLG
Take B3: the binding result (with Bio-P19 member A2E-16; in the experiment with Bio-P19 member A2E-5; with Bio-P19 member A2E-14; in experiment [1]; in [2]; in [3]) was “no binding” each time. Also, the binding result in [4], in experiment [5], in experiment [6], in experiment [7], in experiment [8] and in experiment [9] was “no binding” throughout. The binding result in experiment [10], in [11], in experiment [12], in experiment [13], in experiment [14] and in experiment [15] was “no binding” throughout. The binding result in [16] was “no binding”; in [17], “no binding”; in experiment [18] it was “no binding”; in experiment [19], “no binding”; in experiment [20], “no binding”; in experiment [21] it was “binds”.
